Laboratory results as given in patent publication US12685781B2, “Anti-HER3 antibody-drug conjugate” (DAIICHI SANKYO COMPANY, LIMITED, priority 2014, dated 2026).

Biological target: HER3 (Homo sapiens, UniProt P21860)
Experiment: Inhibition of HER3 signal, Western blotting in A549 cells
Assay type: cell-based
Procedure: A human lung cancer cell line A549 (CRS-300114) from Cell Lines Service was dissociated by trypsin treatment, and 50,000 living cells were inoculated to 3 mL of DMEM/F12 (Invitrogen Corp., #21331-020)+10% FBS (Invitrogen Corp., #10270-106) in each of 6 wells. After culturing the cells for 3 days, the medium was replaced with 2 mL of a fresh medium.
The antibody or each antibody-drug conjugate was added directly to 2 mL of a medium in each of the 6 wells such that the final concentration was 10 ug/mL (20 uL of a stock solution of 1 ug/uL antibody or antibody-drug conjugate was added).
U1-59, the antibody-drug conjugate (3), the antibody-drug conjugate (10), or the antibody-drug conjugate (13) was used as the antibody or the antibody-drug conjugate. An untreated group was used as a control.
The cells were cultured for 2 days, washed once with PBS, and treated with 100 uL of an ice-cooled buffer (50 mM 4-(2-hydroxyethyl)-1-piperazineethanesulfonic acid (HEPES), pH 7.5, 150 mM sodium chloride, 1 mM ethylenediaminetetraacetic acid (EDTA), 12.5% glycerin, 1% Triton X-100, and 10 mM sodium pyrophosphate tetrabasic supplemented with proteinase inhibitors (Roche Diagnostics, Inc., #11697 498 001), 10 mM sodium fluoride, 1 mM sodium vanadate, 1 mM phenyl-methane-sulfonyl-fluoride (PMSF), and 10 ug/mL aprotinin (Sigma-Aldrich Co. LLC, A1153)) for 30 minutes at 4 C for lysis. […]

HER3 phosphorylation compared with untreated cells (A549, 10 ug/mL, 2 days): reduced
Substance: U1-59: anti-HER3 human antibody; heavy and light chain variable regions SEQ ID NOs: 70 and 72; produced per WO 2007/077028
HER3 expression compared with untreated cells (A549, 2 days): reduction in HER3 expression was also observed
